According to US20190233512A1 (SUTRO BIOPHARMA, published 2019):
Substitutions are numbered along the chain they refer to.

B1: SRP2060-E05 (antibody, V domains shown)
VH: EVQLLESGGGLVQPGGSLRLSCAFSGFSLSTFGMGVGWVRQAPGKGLEWVSHIWWDDDKYYHPALKGRFTVSKDNSKNTVYLQMNSLRAEDTAVYYCGRNHFPHYYGSSHWYFNVWGQGTTVTVSS
VL: EIVMTQSPATLSLSPGERATLSCKASQDINSYLSWYQQKPGQAPRLLIYRANRLVDGIPARFSGSGSGTDYTLTISSLEPEDFAVYYCLQYDEFPYTFGGGTKVEIK
B2: SRP2060-B01 (antibody, V domains shown)
VH: B1 VH with F24L, P43T, V71I, Y81H
VL: DIQMTQSPSTLSASVGDRVTITCKASQDINSYLSWYQQKPGKAPKLLIYRANRLVDGVPSRFSGSGSGTEFTLTISSLQPDDFATYYCLQYDEFPYTFGGGTKVEIK
B3: SRP2060-A06 (antibody, V domains shown)
VH: B1 VH with S51G, H62Y, V71I, N114D
VL: B2 VL
B4: SRP1848-H01 (antibody, V domains shown)
VH: EVQLVESGGGLVQPGGSLRLSCAASGFNIRTQSIHWVRQAPGKGLEWIGDIFPIDGITDYADSVKGRFTISADTSKNTAYLQMNSLRAEDTAVYYCARGSWSWPSGMDYYLDYWGQGTLVTVSS
VL: not shown
notes: trastuzumab light chain; captured through Fc in SPR (IgG format); HIS- and FLAG-tagged; also called Antibody 55

Legend:
[1] = biological target: FOLR1 on FOLR1-positive Igrov1 cells (UniProt P15328 25-234, limits assumed); experiment: cell-based or functional assay
[2] = biological target: T1, human FOLR1-HIS (human, UniProt P15328 25-234); experiment: SPR (Biacore), antibody captured on anti-Fc, FOLR1-HIS as analyte, 25 C
T1 construct: Soluble analyte of the Biacore assay; also called human folate receptor alpha; hFOLR1; not shown: HIS tag
Method: Anti-Fc polyclonal antibodies were immobilized onto a CM5 chip (GE Life Sciences) using amine coupling chemistry (from Amine Coupling Kit, GE Life Sciences). The immobilization steps were carried out at a flow rate of 25 μL/min in 1×HBS-EP+buffer (GE Life Sciences; 10× Stock diluted before use). The sensor surfaces were activated for 7 min with a mixture of N-hydroxysuccinimide (NHS, 0.05 M) and 1-ethyl-3-(3-dimethylaminopropyl)-carbodiimide (EDC, 0.2 M). The anti-Fc polyclonal antibodies were injected over all 4 flow cells at a concentration of 25 μg/mL in 10 mM sodium acetate, pH 4.5, for 7 min. Ethanolamine (1 M, pH 8.5) was injected for 7 min to block any remaining activated groups.
Off-rate and kinetic binding experiments were performed at 25° C. using 1×HBS-EP+buffer. Test and control antibodies were injected over the anti-Fc surface at concentrations of 5-10 μg/mL for 12 seconds at a flow rate of 10 μL/min on flow cells 2, 3 and 4, followed by a buffer wash for 30 seconds at the same flow rate.
The data were fit with the Biacore T200 Evaluation software, using a 1:1 Langmuir binding model. KD (affinity, nM) was determined as a ratio of the kinetic rate constants calculated from the fits of the association and dissociation phases.

Sequence of FOLR1 on FOLR1-positive Igrov1 cells (P15328 25-234 limits assumed): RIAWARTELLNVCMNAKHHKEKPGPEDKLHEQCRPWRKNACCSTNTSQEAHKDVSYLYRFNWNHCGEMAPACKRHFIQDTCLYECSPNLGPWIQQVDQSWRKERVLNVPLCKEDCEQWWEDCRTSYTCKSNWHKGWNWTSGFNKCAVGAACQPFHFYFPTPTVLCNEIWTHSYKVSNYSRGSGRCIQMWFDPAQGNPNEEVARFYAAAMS
T1 sequence (P15328 25-234 limits assumed): as above

| Binder | Igrov 2° Antibody Cell Killing, Nb-SC239: EC50 [1] | Igrov 2° Antibody Cell Killing, Nb-SC239: span (%) [1] | koff [2] | kon [2] |
| --- | --- | --- | --- | --- |
| B1 | 0.22 nM | 71% |  |  |
| B2 | 0.045 nM | 76% |  |  |
| B3 | 0.013 nM | 66% |  |  |
| B4 |  |  | 0.00139 s⁻¹ | 659000 M⁻¹ s⁻¹ |
